Data reported in patent US20240400693A1 (Chugai, published 2024).
Where a chain is given by its changes, count along the chain named.

T1: HLA-DQ5.1 on Ba/F3 cells (human, limits assumed)
T1 construct: whole, on cells; also called Ba/F3-HLA-DQ5.1
T1 MHC II alpha: not shown
T1 MHC II beta: not shown

T2: HLA-DQ6.3 on Ba/F3 cells (human, UniProt P01920 33-230, limits assumed)
T2 construct: whole, on cells; also called Ba/F3-HLA-DQ6.3
T2 MHC II alpha: not shown
T2 MHC II beta: not shown

B1: DQN0344H1013/L0620//DQN0385H1353/L0681-F6 (bispecific antibody)
heavy 1: QVQLVESGGGVVQPGRSLRLSCAASGFTFSSAYWMVWVRQAPGQGLEWMGAVYGGSDTTYYAKWTEGRFTISRDTSKNTLYLQMNSLRAEDTAVYYCAREPLNYYYYGELNVWGQGTLVTVSSASTKGPSVFPLAPSSKSTSGGTAALGCLVKDYFPEPVTVSWNSGALTSGVHTFPAVLKSSGLYSLSSVVTVPSSSLGTQTYICNVNHKPSNTKVDKRVEPKSCDKTHTCPPCPAPELRRGPSVFLFPPKPKDTLMISRTPEVTCVVVDVSHEDPEVKFNWYVDGVEVHNAKTKPREEQYNSTYRVVSVLTVLHQDWLNGKEYKCKVSNKALPAPIEKTISKAKGQPREPQVYTLPPSREEMTKNQVSLTCLVKGFYPSDIAVEWESNGQPENNYKTTPPYLDSDGSFFLYSKLTVDKSRWQEGNVFSCSVLHEALHAHYTREELSLSP
light 1: DIQMTQSPSSLSASVGDRVTITCQATENIYSGLAWYQQKPGKAPKLLIYYVSTLAYGIPARFSGSGSGTDFTLTISSLEPEDFAVYYCQTYEDVSAVTFGQGTKVEIKRTVAAPSVFIFPPSDEQLKSGTAEVVCLLNNFYPREAKVQWKVDNALQSGNSEESVTEQDSKDSTYSLSSTLTLSKADYEKHKVYACEVTHQGLSSPVTKSFNRGEC
heavy 2: QVQLVESGGGVVQPGRSLRLSCAASGFTFAEWYFMSWVRQAPGKGLEWVASIDTGSGSIDYAEWVEGRFTISRDNSKNTLYLQMNSLRAEDTAVYYCARDIGIDYNFWGPGTLVTVSSASTKGPSVFPLAPSSKSTSGGTAALGCLVEDYFPEPVTVSWNSGALTSGVHTFPAVLESSGLYSLSSVVTVPSSSLGTKTYICNVNHKPSNTKVDKRVEPKSCDKTHTCPPCPAPELRRGPSVFLFPPKPKDTLMISRTPEVTCVVVDVSHEDPEVKFNWYVDGVEVHNAKTKPREEQYNSTYRVVSVLTVLHQDWLNGKEYKCKVSNKALPAPIEKTISKAKGQPREPQVYTLPPSRKEMTKNQVSLTCLVKGFYPSDIAVEWESNGQPENNYKTTPPYLDSDGSFFLYSKLTVDKSRWQQGNVFSCSVLHEALHAHYTRKELSLSP
light 2: DIQMTQSPSSLSASVGDRVTITCQTTQSISSYLNWYQQKPGQPPKLLIYYASTKAEGIPARFSGSGLGTDFTLTISSLEPEDFAVYYCHYGISKVSFGQGTKVEIKRTVAAPSVFIFPPSDEQLKSGTAKVVCLLNNFYPREAKVQWKVDNALQSGNSKESVTEQDSKDSTYSLSSTLTLSKADYEKHKVYACEVTHQGLSSPVTKSFNRGEC
B2: DQN0344H0976/L0591//DQN0385H1255/L0605-F6.v2 (bispecific antibody)
heavy 1: B1 heavy 1 with R16G, V112L, Y403V
light 1: B1 light 1 with N28E, A55Y, Y56E
heavy 2: B1 heavy 2 with A30S, E63G, G67E, Y398V
light 2: B1 light 2 with L67S
B3: DQN0344H0976/L0591//DQN0385H1270/L0681-F6 (bispecific antibody)
heavy 1: B1 heavy 1 with R16G, V112L
light 1: B1 light 1 with N28E, A55Y, Y56E
heavy 2: B1 heavy 2 with A30S
light 2: B1 light 2
B4: DQN0344H0976/L0591//DQN0385H1255/L0605-F6 (bispecific antibody)
heavy 1: B1 heavy 1 with R16G, V112L
light 1: B1 light 1 with N28E, A55Y, Y56E
heavy 2: B1 heavy 2 with A30S, E63G, G67E
light 2: B1 light 2 with L67S
B5: DQN0344H0976/L0591//DQN0385H1270/L0722-F6 (bispecific antibody)
heavy 1: B1 heavy 1 with R16G, V112L
light 1: B1 light 1 with N28E, A55Y, Y56E
heavy 2: B1 heavy 2 with A30S
light 2: B1 light 2 with E79Q
B6: DQN0344H0976/L0591//DQN0385H1352/L0681-F6 (bispecific antibody)
heavy 1: B1 heavy 1 with R16G, V112L
light 1: B1 light 1 with N28E, A55Y, Y56E
heavy 2: B1 heavy 2 with T28E, A30S
light 2: B1 light 2
B7: DQN0344H0976/L0591//DQN0385H1527/L0605-F6 (bispecific antibody)
heavy 1: B1 heavy 1 with R16G, V112L
light 1: B1 light 1 with N28E, A55Y, Y56E
heavy 2: B1 heavy 2 with E31S
light 2: B1 light 2 with L67S
B8: DQN0344H1013/L0620//DQN0385H1270/L0681-F6 (bispecific antibody)
heavy 1: B1 heavy 1
light 1: B1 light 1
heavy 2: B1 heavy 2 with A30S
light 2: B1 light 2

Biological target: T1, HLA-DQ5.1 on Ba/F3 cells
Experiment: FACS, Ba/F3 cells; raw MFI

Binder	binding result
B1	no binding (tested: 0.05 micro g/mL)

Biological target: T3, HLA-DP on Ba/F3 cells (human, UniProt P20036 29-222; P04440 30-225, limits assumed)
T3 construct: whole, on cells; also called Ba/F3-HLA-DP
T3 sequence (P20036 29-222 limits assumed, chain 1 of 4, other chains not shown): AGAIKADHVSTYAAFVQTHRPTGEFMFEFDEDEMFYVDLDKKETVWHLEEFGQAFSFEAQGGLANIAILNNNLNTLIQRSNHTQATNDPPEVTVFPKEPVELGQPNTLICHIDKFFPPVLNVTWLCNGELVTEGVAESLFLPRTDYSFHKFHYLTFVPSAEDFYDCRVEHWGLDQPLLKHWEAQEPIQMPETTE
T3 sequence (P04440 30-225 limits assumed, chain 2 of 4, other chains not shown): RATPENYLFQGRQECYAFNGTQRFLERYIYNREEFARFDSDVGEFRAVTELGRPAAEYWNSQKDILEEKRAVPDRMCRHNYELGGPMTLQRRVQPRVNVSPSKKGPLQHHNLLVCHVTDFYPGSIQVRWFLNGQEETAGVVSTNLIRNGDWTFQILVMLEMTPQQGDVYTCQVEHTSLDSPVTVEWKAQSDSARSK
Experiment: FACS, Ba/F3 cells; raw MFI

Binder	binding result
B1	no binding (tested: 0.05 micro g/mL)

Biological target: T2, HLA-DQ6.3 on Ba/F3 cells
Experiment: FACS, Ba/F3 cells; raw MFI

Binder	binding result
B1	no binding (tested: 0.05 micro g/mL)

Biological target: HLA-DQ2.2 on HBBB2.2 cells loaded with 33mer gliadin peptide (human; wheat)
Experiment: cell-based or functional assay

Binder	IC50 (ng/ml)_HLA-DQ2.2, α1a gliadin TCR, 25 µM 33mer gliadin	IC50 (ng/ml)_HLA-DQ2.2, α2 gliadin TCR, 1 µM 33mer gliadin
B2	1.72 ng/mL	9.48 ng/mL

Biological target: T4, HLA-DQ2.5 on IHW09023 cells loaded with gamma 4a gliadin peptide (human; wheat)
Experiment: cell-based or functional assay

Binder	IC50 (ng/mL), γ4a gliadin TCR, 25 µM γ4a gliadin
B3	749 ng/mL
B4	1430 ng/mL
B5	726 ng/mL
B6	802 ng/mL
B7	1210 ng/mL
B8	1160 ng/mL
B1	1250 ng/mL

Biological target: T5, HLA-DQ2.5 on IHW09023 cells loaded with gamma 3 gliadin peptide (human; wheat)
Experiment: cell-based or functional assay

Binder	IC50 (ng/mL), γ3 gliadin TCR, 100 µM γ3 gliadin
B3	2.4 ng/mL
B4	2.31 ng/mL
B5	2.88 ng/mL
B6	2.99 ng/mL
B7	2.09 ng/mL
B8	2.63 ng/mL
B1	2.29 ng/mL

Biological target: T6, HLA-DQ2.5 on IHW09023 cells loaded with gamma 1 gliadin peptide (human; wheat)
Experiment: cell-based or functional assay

Binder	IC50 (ng/mL), γ1 gliadin TCR, 250 nM γ1 gliadin
B3	1.05 ng/mL
B4	0.91 ng/mL
B5	0.66 ng/mL
B6	1.11 ng/mL
B7	0.59 ng/mL
B8	1.11 ng/mL
B1	0.56 ng/mL

Biological target: T7, HLA-DQ2.5 on IHW09023 cells loaded with BC hordein peptide (human; barley)
Experiment: cell-based or functional assay

Binder	IC50 (ng/mL), BC hordein TCR, 250 nM BC hordein
B3	12 ng/mL
B4	13.6 ng/mL
B5	13.2 ng/mL
B6	10.8 ng/mL
B7	6.54 ng/mL
B8	7.54 ng/mL
B1	8.78 ng/mL

Biological target: T8, HLA-DQ2.5 on IHW09023 cells loaded with omega1/2 gliadin peptide (human; wheat)
Experiment: cell-based or functional assay

Binder	IC50 (ng/mL), ω1 gliadin TCR, 25 µM ω1/2 gliadin	IC50 (ng/mL), ω2 gliadin TCR, 250 nM ω1/2 gliadin
B3	2.07 ng/mL	0.26 ng/mL
B4	2.62 ng/mL	0.25 ng/mL
B5	2.55 ng/mL	0.26 ng/mL
B6	1.48 ng/mL	0.24 ng/mL
B7	3.25 ng/mL	0.3 ng/mL
B8	2.51 ng/mL	0.2 ng/mL
B1	1.17 ng/mL	0.17 ng/mL

Biological target: T9, HLA-DQ2.5 on IHW09023 cells loaded with gamma 4d gliadin peptide (human; wheat)
Experiment: cell-based or functional assay

Binder	IC50 (ng/mL), γ4d gliadin TCR, 100 µM γ4d gliadin
B3	11.8 ng/mL
B4	12.4 ng/mL
B5	16.3 ng/mL
B6	9.82 ng/mL
B7	11.4 ng/mL
B8	13.1 ng/mL
B1	2.06 ng/mL

Biological target: T10, HLA-DQ2.5 on IHW09023 cells loaded with 33mer gliadin peptide (human; wheat)
Experiment: cell-based or functional assay

Binder	IC50 (ng/mL), α1b gliadin TCR, 250 nM 33mer gliadin	IC50 (ng/mL), α2 gliadin TCR, 250 nM 33mer gliadin	IC50 (ng/mL), α1a gliadin TCR, 250 nM 33mer gliadin
B3	1.36 ng/mL	0.34 ng/mL	
B4	2.66 ng/mL	0.56 ng/mL	0.49 ng/mL
B5	1.41 ng/mL	0.31 ng/mL	0.38 ng/mL
B6	1.37 ng/mL	0.31 ng/mL	0.29 ng/mL
B7	1.84 ng/mL	0.51 ng/mL	0.7 ng/mL
B8	1.78 ng/mL	0.33 ng/mL	0.38 ng/mL
B1	1.13 ng/mL	0.34 ng/mL	0.29 ng/mL

Biological target: T11, HLA-DQ2.5 on IHW09023 cells loaded with gamma 2 gliadin peptide (human; wheat)
Experiment: cell-based or functional assay

Binder	IC50 (ng/mL), γ2 gliadin TCR, 250 nM γ2 gliadin
B3	182 ng/mL
B4	440 ng/mL
B5	281 ng/mL
B6	284 ng/mL
B7	637 ng/mL
B8	322 ng/mL
B1	100 ng/mL

Biological target: T4, HLA-DQ2.5 on IHW09023 cells loaded with …
Experiment: cell-based or functional assay
Remark: another data set of the same source

Binder	IC50 (ng/mL), γ4a gliadin TCR, 25 µM γ4a gliadin
B2	636 ng/mL

Biological target: T5, HLA-DQ2.5 on IHW09023 cells loaded with …
Experiment: cell-based or functional assay
Remark: another data set of the same source

Binder	IC50 (ng/mL), γ3 gliadin TCR, 100 µM γ3 gliadin
B2	1.55 ng/mL

Biological target: T6, HLA-DQ2.5 on IHW09023 cells loaded with …
Experiment: cell-based or functional assay
Remark: another data set of the same source

Binder	IC50 (ng/mL), γ1 gliadin TCR, 250 nM γ1 gliadin
B2	1.62 ng/mL

Biological target: T7, HLA-DQ2.5 on IHW09023 cells loaded with …
Experiment: cell-based or functional assay
Remark: another data set of the same source

Binder	IC50 (ng/mL), BC hordein TCR, 250 nM BC hordein
B2	9.52 ng/mL

Biological target: T8, HLA-DQ2.5 on IHW09023 cells loaded with …
Experiment: cell-based or functional assay
Remark: another data set of the same source

Binder	IC50 (ng/mL), ω1 gliadin TCR, 25 µM ω1/2 gliadin	IC50 (ng/mL), ω2 gliadin TCR, 250 nM ω1/2 gliadin
B2	1.62 ng/mL	0.18 ng/mL

Biological target: T9, HLA-DQ2.5 on IHW09023 cells loaded with …
Experiment: cell-based or functional assay
Remark: another data set of the same source

Binder	IC50 (ng/mL), γ4d gliadin TCR, 100 µM γ4d gliadin
B2	8.69 ng/mL

Biological target: T10, HLA-DQ2.5 on IHW09023 cells loaded with …
Experiment: cell-based or functional assay
Remark: another data set of the same source

Binder	IC50 (ng/mL), α1a gliadin TCR, 250 nM 33mer gliadin	IC50 (ng/mL), α1b gliadin TCR, 250 nM 33mer gliadin	IC50 (ng/mL), α2 gliadin TCR, 250 nM 33mer gliadin
B2	0.46 ng/mL	1.33 ng/mL	0.29 ng/mL

Biological target: T11, HLA-DQ2.5 on IHW09023 cells loaded with …
Experiment: cell-based or functional assay
Remark: another data set of the same source

Binder	IC50 (ng/mL), γ2 gliadin TCR, 250 nM γ2 gliadin
B2	252 ng/mL
